Reference: US20120304318A1, “CANCER DIAGNOSIS AND TREATMENT” (CAMBRIDGE ENTERPRISE LTD, priority 2009, published 2012)

Experiments:
EJ28 cells [1] = test: Apoptosis of stably transfected EJ28 cells with or without Mitomycin C (caspase activity); type: cell-based; settings: for endogenous apoptosis: stable overexpression in EJ28, no drug; for apoptosis induced by Mitomycin C: stable overexpression in EJ28, 1 μg/ml Mitomycin C, caspase activity
Method: Two control EJ28 cells, two OMD stably-transfected EJ28 cells, and a PRELP stably-transfected EJ28 cells are treated with 1 μg/ml of Mitomycin C. Also, as a positive control, EJ28 cells are treated with higher concentration 5 μg/ml of Mitomycin C as a positive control. Then, the ratios of apoptotic cells were determined by measuring caspase activities.
(§1) OMD and PRELP were subcloned into pIRES2-EGFP (Clontech). A bladder cancer cell line, EJ28, was stably transfected with these plasmids by selection with G418. Two independent clones were derived for each plasmid (except MT-Prelp, where it was only possible to derive one). Then, the properties of these cells were examined. […] These cells include apoptotic ones. This contrasted with control cells, which were flat and cuboidal. […] Two independent clones of OMD and EGFP expressing EJ28 cells, two independent control EJ28 clones expressing EGFP, and a PRELP with myc tag and EGFP expressing EJ28 cells were treated with 1 μg/ml Mitomycin C. Also, EGFP expressing EJ28 cells were treated with higher concentration of Mitomycin C (5 μg/ml) as a positive control.

[2] = system: EJ28 bladder cancer cell line; test: Proliferation and cell cycle of stably transfected EJ28 cells (cell counting, BrdU incorporation, FACS); type: cell-based
Text: Also disclosed herein are novel methods for treatment of cancer based on activation of OMD and/or PRELP. […] If so, it can be inferred that the activation of OMD or/and PRELP would inhibit tumourigenesis and provide novel treatment of cancer. […] To this end, OMD or PRELP was stably over-expressed in the bladder cancer cell line EJ28.
as §1

HEK 293 cells = test: Mitomycin C induced apoptosis in normal cells (annexin and caspase activity assays); type: cell-based; settings: stable overexpression in HEK 293; 1 ug/ml mitomycin C, 24 h
Method: FIG. 10. OMD expression protects normal cells from apoptosis, whilst PRELP expression has no effect. HEK 293 cells stably transfected with either CAT (a control), OMD or PRELP, and assayed to measure the level of apoptosis they underwent in response to treatment with 1 ug/ml mitomycin C. (a) Annexin assay. Cells were treated one dose of the drug, and 24 hours later, they were trypsinized, incubated in the presence of Alexafluor-647 conjugated annexin and propidium iodide, and examined by flow cytometry. The annexin-positive, PI-negative subpopulation, comprising live cells that were in the process of undergoing apoptosis, was identified. (b) Caspase activity assay. One dose of the drug was administered, and 24 h later, cells were incubated in the presence of a substrate that, upon cleavage by caspases, was converted into a luminescent product. Luminescence was quantified and taken to be proportional to caspase activity. In both (a) and (b), error bars refer to standard deviations, and statistical analysis consisted of t-tests.

EJ28 cells [3] = test: Anchorage-independent growth in soft agar; type: cell-based; settings: stable overexpression in EJ28; 2 weeks; relative to control cells
Method: FIG. 14. OMD abolishes, and PRELP inhibits, anchorage-independent growth of EJ28 cells. Cells were seeded in DMEM+0.3% agar, overlying a lower layer of DMEM+0.6% agar. 3000 cells were seeded into wells of a 6-well dish in triplicate. Plates were incubated for 2 weeks, and colonies were counted. Error bars are standard deviations. Statistical analysis consisted of one-way ANOVA, with post-hoc Newman-Keuls testing. Letter groupings, “a”, “b” etc, refer to the results of the Newman-Keuls test.
OMD and PRELP also affect the anchorage-independence, a hallmark of cancer cells. Anchorage-independence was measured by seeding cells in soft agar, incubating them for 2 weeks and counting the number of resultant colonies.

[4] = system: EJ28 bladder cancer cells; test: EJ28 xenograft in nude mice, tumour volume; type: in vivo, MF1 nude mice; settings: day 18
Method: To evaluate in vivo effect of OMD or PRELP activation in cancer cells, xenograft experiments were performed using nude mice. EJ28 bladder cancer cells expressing OMD or EJ28 control cells were injected into the mice and cancer development was monitored for three weeks. […] This observation confirms the utility of OMD/PRELP based cancer treatment.
FIG. 15 Effect of xenograft of EJ28 cells overexpressing OMD protein. EJ28 bladder cancer cells or EJ28 cells overexpressing OMD were inoculated into nude mice and then cancer development was monitored for three weeks. The result at 18 days is shown.
Six- to eight-week-old male MF1 nude mice were obtained from Royal Free Hospital London UK. Tumors were induced by inoculation of 5×10^6 EJ28 cancer bladder cells s.c. on the back. EJ28 tumour-bearing MF-1 mice (n=5) were injected with cells subcloned with stably transfected with OMD-myc tag in pIRES2-EGFP vector, using Lipofectamine 2000 (Invitrogen). […] Tumour dimensions were measured continuously using a caliper and tumour volumes were calculated using the equation: volume=(π/6)×a×b×c, where a, b, and c represent three orthogonal axes of the tumour. Animals were assessed for tumour growth over 25-day period.
The biological activity of OMD on EJ28 tumour-bearing mice was determined by measuring changes in tumour volume.

[5] = stable overexpression in EJ28 vs control cells

In the case of `CO[C@@]12[C@H](COC(N)=O)C3=C(C(=O)C(C)=C(N)C3=O)N1C[C@@H]1N[C@@H]12` [Mitomycin C, reference compound], the cell death (EJ28 cells [1]; EGFP expressing EJ28 cells, 5 μg/ml Mitomycin C, positive control) is reported as “massive cell death”.

B1: OMD: human osteomodulin protein (SEQ ID NO:1), stably overexpressed in cells from an expression plasmid (protein, listed as Homo sapiens)
chain: MGFLSPIYVIFFFFGVKVHCQYETYQWDEDYDQEPDDDYQTGFPFRQNVDYGVPFHQYTLGCVSECFCPTNFPSSMYCDNRKLKTIPNIPMHIQQLYLQFNEIEAVTANSFINATHLKEINLSHNKIKSQKIDYGVFAKLPNLLQLHLEHNNLEEFPFPLPKSLERLLLGYNEISKLQTNAMDGLVNLTMLDLCYNYLHDSLLKDKIFAKMEKLMQLNLCSNRLESMPPGLPSSLMYLSLENNSISSIPEKYFDKLPKLHTLRMSHNKLQDIPYNIFNLPNIVELSVGHNKLKQAFYIPRNLEHLYLQNNEIEKMNLTVMCPSIDPLHYHHLTYIRVDQNKLKEPISSYIFFCFPHIHTIYYGEQRSTNGQTIQLKTQVFRRFPDDDDESEDHDDPDNAHESPEQEGAEGHFDLHYYENQE
With B1 the “cell cycle arrest / inhibition” value ([2]; stable overexpression in EJ28) was “enhanced cell cycle arrest at G1 phase”, the “proportion of cells in S-phase (FACS analysis)” value ([2]; stable overexpression in EJ28) was “lower proportion of cells in S-phase” and the BrdU incorporation [2, 5] was “lower rate of BrdU incorporation”. The “proliferation (cell-counting assay)” value [2, 5] was “proliferated more slowly than control cells”, the “Mitomycin-C mediated apoptosis of normal cells” value (HEK 293 cells) was “protected normal cells” and the endogenous apoptosis (EJ28 cells [1]) was “increased cell death by apoptosis”. The “apoptosis induced by Mitomycin C” value (EJ28 cells [1]) was “markedly sensitized” and the “anchorage-independent growth / colony-forming ability in soft agar” value (EJ28 cells [3]) was “absolutely abolished”.

B2: PRELP: human PRELP protein (SEQ ID NO:2), stably overexpressed in cells (myc tagged in EJ28) (protein)
chain: QPTRRPRPGTGPGRRPRPRPRPTPSFPQPDEPAEPTDLPPPLPPGPPSIFPDCPRECYCPPDFPSALYCDSRNLRKVPVIPPRIHYLYLQNNFITELPVESFQNATGLRWINLDNNRIRKIDQRVLEKLPGLVFLYMEKNQLEEVPSALPRNLEQLRLSQNHISRIPPGVFSKLENLLLLDLQHNRLSDGVFKPDTFHGLKNLMQLNLAHNILRKMPPRVPTAIHQLYLDSNKIETIPNGYFKSFPNLAFIRLNYNKLTDRGLPKNSFNISNLLVLHLSHNRISSVPAINNRLEHLYLNNNSIEKINGTQICPNDLVAFHDFSSDLENVPHLRYLRLDGNYLKPPIPLDLMMCFRLLQSVVI
B2 was tested, and the “cell cycle arrest / inhibition” value ([2]; stable overexpression in EJ28) was “cell cycle inhibition was not observed”, the “proliferation (cell-counting assay)” value [2, 5] was “inhibit proliferation” and the “Mitomycin-C mediated apoptosis of normal cells” value (HEK 293 cells) was “had no effect”. The endogenous apoptosis (EJ28 cells [1]) was “higher rates of endogenous apoptosis”, the “apoptosis induced by Mitomycin C” value (EJ28 cells [1]) was “even higher rates of apoptosis” and the “anchorage-independent growth / colony-forming ability in soft agar” value (EJ28 cells [3]) was “a third”.

B3: OMD-myc tag: OMD with myc tag in pIRES2-EGFP vector, stably transfected into EJ28 cells (protein, UniProt Q99983 21-421, looked up)
Osteomodulin: QYETYQWDEDYDQEPDDDYQTGFPFRQNVDYGVPFHQYTLGCVSECFCPTNFPSSMYCDNRKLKTIPNIPMHIQQLYLQFNEIEAVTANSFINATHLKEINLSHNKIKSQKIDYGVFAKLPNLLQLHLEHNNLEEFPFPLPKSLERLLLGYNEISKLQTNAMDGLVNLTMLDLCYNYLHDSLLKDKIFAKMEKLMQLNLCSNRLESMPPGLPSSLMYLSLENNSISSIPEKYFDKLPKLHTLRMSHNKLQDIPYNIFNLPNIVELSVGHNKLKQAFYIPRNLEHLYLQNNEIEKMNLTVMCPSIDPLHYHHLTYIRVDQNKLKEPISSYIFFCFPHIHTIYYGEQRSTNGQTIQLKTQVFRRFPDDDDESEDHDDPDNAHESPEQEGAEGHFDLHYYENQE
modifications: myc tag
notes: OMD with myc tag in pIRES2-EGFP vector, stably transfected into EJ28 cells
With B3 the tumour size ([4]; EJ28 cells stably transfected with OMD-myc tag inoculated s.c. in MF-1 nude mice, control 37.91±16.57) was 1.60±1.0 mm^3 and the tumour growth ([4]; OMD-myc tag transfected EJ28 cell line vs vector control) was “completely inhibited”.
